According to patent US20200157153:

Molecular target: His-EutM-SpyCatcher (N-His-GS-EutM-GS-SpyCatcher)

B1: SpyTag-AmDH (N-His-thrombin-SpyTag-GS-Ch1-AmDH) (protein)
chain: MGSSHHHHHHSSGLVPRGSHMMGSSGAHIVMVDAYKPTKGSGGSGVDMSLVEKTSIIKDFTLFEKMSEHEQVVFCNDPATGLRAIIAIHDTTLGPALGGCRMQPYNSVEEALEDALRLSKGMTYSCAASDVDFGGGKAVIIGDPQKDKSPELFRAFGQFVDSLGGRFYTGTDMGTNMEDFIHAMKETNCIVGVPEAYGSSGNPSPATAYGVYRGMKAAAKEAFGSDSLEGKVVAVQGVGNVAYHLCRHLHEEGAKLIVTDINKEAVARAVEEFGAKAVDPNDIYGVECDIFAPCALGGIINDQTIPQLKAKVIAGSALNQLKEPRHGDMIHEMGIVYAPDYVINAGGCINVADELYGYNRERAMKKIEQIYDNIEKVFAIAKRDNIPTYVAADRMAEERIETMRKARSQFLQNGHHILSRRRAR
relative activity after 48 hours, 1:6 SpyTag-AmDH:EutM-SpyCatcher: approximately 79% relative activity
